Biological target: the molecule itself
Assay: crystal structure

B1: El Tor cholera toxin B-pentamer (natural protein)
chain: TPQNITDLCAEYHNTQIYTLNDKIFSYTESLAGKREMAIITFKNGAIFQVEVPGSQHIDSQKKAIERMKDTLRIAYLTEAKVEKLCVWNNKTPHAIAAISMAN
In the case of B1, the “stoichiometry N” value is reported as 5.

Source: paper PMC5443773 (Scientific Reports, 2017)
